Experimental data from patent US20140286957A1 (Teva, published 2014).
“And” between values parts separate entries of the source, which are not always exact repeats. Identical values can stand only once. Like-named read-outs stand apart in the source and are kept apart here.

Tests used:
Human CD1d on cells [1] = molecular target: T1, Human CD1d on cells (human, UniProt P15813 20-335); experiment: cell-based or functional assay
T1 sequence (looked up): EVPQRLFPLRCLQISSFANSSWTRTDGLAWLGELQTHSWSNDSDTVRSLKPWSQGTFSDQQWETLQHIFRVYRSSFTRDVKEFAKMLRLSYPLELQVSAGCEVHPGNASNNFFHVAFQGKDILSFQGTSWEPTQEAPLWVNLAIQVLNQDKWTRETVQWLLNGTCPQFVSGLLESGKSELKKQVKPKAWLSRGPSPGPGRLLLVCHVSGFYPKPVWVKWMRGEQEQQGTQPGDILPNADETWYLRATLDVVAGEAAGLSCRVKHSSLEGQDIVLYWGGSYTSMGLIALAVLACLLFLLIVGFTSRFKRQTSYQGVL

Human CD1d on cells [2] = molecular target: T1, Human CD1d on cells; experiment: cell-based or functional assay; remark: listed apart in the source
Human CD1d on cells [3] = molecular target: T1, Human CD1d on cells; experiment: cell-based or functional assay; remark: listed apart in the source
Human CD1d on cells [4] = molecular target: T1, Human CD1d on cells; experiment: cell-based or functional assay; remark: listed apart in the source
Human CD1d on cells [5] = molecular target: T1, Human CD1d on cells; experiment: cell-based or functional assay; remark: listed apart in the source
[6] = molecular target: T2, CD1d tetramer loaded with α-GalCer (ProImmune) (UniProt P15813 20-301, limits assumed); experiment: flow cytometry, inhibition of CD1d tetramer (10 nM) binding to NKTCR on J.RT3-T3.5 cells
T2 construct: Bought reagent; also called fluorochrome-conjugated CD1d tetramer
T2 sequence (looked up): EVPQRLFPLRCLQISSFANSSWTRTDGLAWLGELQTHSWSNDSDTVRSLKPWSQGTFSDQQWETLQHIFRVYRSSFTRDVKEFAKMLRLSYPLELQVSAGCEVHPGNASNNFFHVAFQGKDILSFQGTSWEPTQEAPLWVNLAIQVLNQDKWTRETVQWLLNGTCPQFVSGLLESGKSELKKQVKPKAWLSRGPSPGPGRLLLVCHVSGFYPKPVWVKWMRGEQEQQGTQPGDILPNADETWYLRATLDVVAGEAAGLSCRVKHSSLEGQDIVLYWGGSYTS
Protocol: To perform the assay, antibodies were prepared at decreasing concentrations from 10 μg/mL in 0.1% bovine serum albumin (BSA) in cold 1×PBS at pH 7.4. […] Wash steps were done in 0.1% BSA in 1×PBS. Data were acquired by flow cytometry and analyzed using flow cytometry analysis software (FlowJo® Treestar, Inc.).

Human CD1d on cells [7] = molecular target: T1, Human CD1d on cells; experiment: cell-based or functional assay; remark: listed apart in the source
Human CD1d on cells [8] = molecular target: T1, Human CD1d on cells; experiment: cell-based or functional assay; remark: listed apart in the source
Human CD1d on cells [9] = molecular target: T1, Human CD1d on cells; experiment: cell-based or functional assay; remark: listed apart in the source
Human CD1d on cells [10] = molecular target: T1, Human CD1d on cells; experiment: cell-based or functional assay; remark: listed apart in the source
Human CD1d on cells [11] = molecular target: T1, Human CD1d on cells; experiment: cell-based or functional assay; remark: listed apart in the source
Human CD1d on cells [12] = molecular target: T1, Human CD1d on cells; experiment: cell-based or functional assay; remark: listed apart in the source
Human CD1d on cells [13] = molecular target: T1, Human CD1d on cells; experiment: cell-based or functional assay; remark: listed apart in the source

B1: 401.11 (antibody, V domains shown)
VH: QVQLVGSGGGLVKPGRSLRLSCAASGFTFDDYAMHWVRQAPGKGLEWVATIIWNSAIIGYADSVKGRFIVSRDNAKNSLYLQMNSLRAEDMALYYCAKDMCSSSGCPDGYFDSWGQGTLVTVSS
VL: DIQMTQSPSSVSASVGDRVTITCRASQHISSWLAWYQQKPGKAPNLLIYAASSLQSGVSSRFSGSGSGTDFTLTISSLQPEDFATYYCQQANRFPLTFGGGTKLEIKR
Human CD1d on cells [1]
  NKT IFN-γ EC50 (moDC): 12.4 ng/mL
  NKT IL-4 EC50 (moDC): 1.98 ng/mL
  NKT IL-5 EC50 (moDC): 2.25 ng/mL
  NKT IL-13 EC50 (moDC): 2.36 ng/mL
Human CD1d on cells [2]
  IFN-γ EC50 (C24:1 βGluCer, moDC): 2.38 ng/mL
  IL-4 EC50 (C24:1 βGluCer, moDC): 1.45 ng/mL
  IL-5 EC50 (C24:1 βGluCer, moDC): 1.23 ng/mL
  IL-13 EC50 (C24:1 βGluCer, moDC): 5.55 ng/mL
  TNF-α EC50 (C24:1 βGluCer, moDC): 1.79 ng/mL
Human CD1d on cells [3]
  NKT IFN-γ EC50 (THP-1): 3.75 ng/mL
  NKT IFN-γ EC50 (moDC): 0.857 ng/mL
Human CD1d on cells [4]
  NKT IFN-γ EC50 (THP-1): 55.2 ng/mL
  NKT IL-4 EC50 (THP-1): 2.98 ng/mL
  NKT IL-5 EC50 (THP-1): 6.96 ng/mL
  NKT IL-13 EC50 (THP-1): 27.2 ng/mL
  NKT TNF EC50 (THP-1): 9.18 ng/mL
Human CD1d on cells [5]
  IFN-γ EC50 (primary CD14+ cells): 6.8 ng/mL
  IL-4 EC50 (primary CD14+ cells): 5.9 ng/mL
  IL-5 EC50 (primary CD14+ cells): 6.2 ng/mL
  IL-13 EC50 (primary CD14+ cells): 12.1 ng/mL
[6]
  EC50: 284 ng/mL
Human CD1d on cells [7]
  IL-2 release EC50 (U-937 + NKTCR cell line): 5.3 ng/mL
Human CD1d on cells [8]
  NKT IFN-γ EC50 (THP-1): 3.75 ng/mL
  NKT IFN-γ EC50 (moDC): 0.857 ng/mL
  NKT IL-4 EC50 (THP-1): 2.88 ng/mL
  NKT IL-4 EC50 (moDC): 6.86 ng/mL
Human CD1d on cells [9]
  IFN-γ EC50 (THP-1): 3.8 ng/mL
  IL-4 EC50 (THP-1): 1.9 ng/mL
  IL-5 EC50 (THP-1): 1.7 ng/mL
  IL-13 EC50 (THP-1): 2.5 ng/mL
Human CD1d on cells [10]
  NKT IFN-γ EC50 (THP-1): 2.33 ng/mL
  NKT IFN-γ EC50 (moDC): 23.5 ng/mL
  NKT IL-4 EC50 (THP-1): 1.36 ng/mL
  NKT IL-4 EC50 (moDC): 12.8 ng/mL
  NKT IL-13 EC50 (THP-1): 3.29 ng/mL
Human CD1d on cells [11]
  NKT IL-4 EC50 (moDC): 7.63 ng/mL and 6.54 ng/mL
  NKT IL-13 EC50 (moDC): 22.8 ng/mL and 19.6 ng/mL
Human CD1d on cells [12]
  NKT IFN-γ EC50 (moDC): 39.4 ng/mL
  NKT IL-4 EC50 (moDC): 17.3 ng/mL
  NKT IL-5 EC50 (moDC): 47.5 ng/mL
  NKT IL-13 EC50 (moDC): 83.1 ng/mL
  NKT TNF EC50 (moDC): 16.9 ng/mL
Human CD1d on cells [13]
  fold potency against 51.1, IL-2 release: ~15 fold
  fold potency against antibody 42 (C24:1 βGluCer): ≤ 58 fold
  fold potency against antibody 42 (THP-1 assay): ≤ 114 fold
  fold potency against antibody 42 (moDC assay): ≤ 200 fold
  fold potency against antibody 42, IL-2 release: ~20 fold
  fold potency against antibody 51.1 (C24:1 βGluCer): ≤ 47 fold
